The target in this assay is T1, CRB1-FLAG p.Y1161C (human, UniProt P82279 26-1406, p.Y1161C).
T1 construct: Crumbs homolog 1, canonical form, human, cDNA NM_202153 as printed, with a patient missense mutation; Made by site-directed mutagenesis of m1; also called CRB1 p.Y1161C; CRB1-FLAG MT; source: HEK293T, transfected, in lysate; not shown: Strep-Strep-FLAG, N-terminal, kept
T1 sequence (looked up): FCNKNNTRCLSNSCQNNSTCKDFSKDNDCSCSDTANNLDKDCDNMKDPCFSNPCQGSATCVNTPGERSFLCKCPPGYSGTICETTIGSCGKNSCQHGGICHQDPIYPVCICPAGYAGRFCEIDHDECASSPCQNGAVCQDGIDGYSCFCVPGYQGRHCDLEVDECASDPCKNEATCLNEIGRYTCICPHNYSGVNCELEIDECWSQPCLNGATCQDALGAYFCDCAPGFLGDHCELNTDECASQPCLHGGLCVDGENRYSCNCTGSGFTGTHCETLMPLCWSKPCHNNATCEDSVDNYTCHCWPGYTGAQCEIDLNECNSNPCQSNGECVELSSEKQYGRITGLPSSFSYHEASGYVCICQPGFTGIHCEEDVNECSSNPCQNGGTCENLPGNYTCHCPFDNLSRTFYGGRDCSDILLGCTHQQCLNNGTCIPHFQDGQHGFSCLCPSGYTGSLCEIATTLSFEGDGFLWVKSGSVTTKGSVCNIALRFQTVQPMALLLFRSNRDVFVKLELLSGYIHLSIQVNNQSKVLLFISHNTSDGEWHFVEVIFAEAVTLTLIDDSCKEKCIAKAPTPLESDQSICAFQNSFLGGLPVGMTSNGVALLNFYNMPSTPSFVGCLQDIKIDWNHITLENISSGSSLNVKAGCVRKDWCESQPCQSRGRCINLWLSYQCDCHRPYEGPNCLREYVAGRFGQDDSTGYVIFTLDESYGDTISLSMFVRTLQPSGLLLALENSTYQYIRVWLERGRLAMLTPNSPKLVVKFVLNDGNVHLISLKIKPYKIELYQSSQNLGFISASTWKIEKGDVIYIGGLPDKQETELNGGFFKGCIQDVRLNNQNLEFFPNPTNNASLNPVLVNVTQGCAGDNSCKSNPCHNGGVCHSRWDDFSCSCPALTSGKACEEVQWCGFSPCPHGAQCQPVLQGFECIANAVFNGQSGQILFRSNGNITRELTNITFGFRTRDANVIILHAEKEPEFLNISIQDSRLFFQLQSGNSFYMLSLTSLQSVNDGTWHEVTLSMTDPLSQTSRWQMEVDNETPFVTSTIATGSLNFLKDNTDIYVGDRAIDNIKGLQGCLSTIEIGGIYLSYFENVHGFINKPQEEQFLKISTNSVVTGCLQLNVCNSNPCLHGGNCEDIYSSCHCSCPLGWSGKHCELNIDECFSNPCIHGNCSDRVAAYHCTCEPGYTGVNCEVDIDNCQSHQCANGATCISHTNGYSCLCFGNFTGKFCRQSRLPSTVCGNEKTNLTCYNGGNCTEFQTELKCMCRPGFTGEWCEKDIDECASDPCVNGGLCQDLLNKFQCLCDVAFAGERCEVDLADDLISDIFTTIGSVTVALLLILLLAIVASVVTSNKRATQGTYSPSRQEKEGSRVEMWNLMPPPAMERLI
Kind of assay: co-IP; HEK293T cells co-transfected pairwise with a FLAG and an HA construct, 48 h; lysis in TBS (30 mM Tris-HCl pH 7.4, 150 mM NaCl) with 0.5% Nonidet P40; FLAG-IP on ANTI-FLAG M2 Affinity Gel 60-90 min at 4°C, elution with FLAG peptide; Western blot with HA and FLAG antibodies; for mutants HA/FLAG signal in eluates relative to WT, three biological replicates. As to conditions: partners not purified. (In western blotting, separated proteins are transferred to a membrane and probed.)

B1: Human canonical CRB2 (Crumbs homolog 2) (natural protein)
chain: not shown
notes: Crumbs homolog 2, human, cDNA NM_173689; Stood as bait (FLAG copy) and as prey (HA copy) in the pairwise co-IP matrix; each copy carries only one of the two tags; The FLAG copy was the bait of the mass spectrometry pull-downs; also called CRB2-FLAG; CRB2-HA; source: HEK293T, transfected, in lysate (co-IP); HEK293T, transfected, FLAG-IP on beads, washed and purified with 0.01% SDS (retina …)
As for B1, the “percent reduction of the interaction relative to CRB1 WT” value is 11%.

The record behind these values is paper PMC10992996, “Human CRB1 and CRB2 form homo- and heteromeric protein complexes in the retina” (Life Science Alliance, 2024).
